Reference: patent publication US20260167733A1 (CLEVELAND CLINIC FOUNDATION, published 2026)

T1: human AMHR2 on AMHR2-OVCAR8 cells (human, UniProt Q16671 18-573)
T1 construct: whole, on cells; Also the target in IHC of human HGSOC tumour tissue sections; also called AMHR2-ED on human EOC cells; anti-Mullerian hormone receptor type II
T1 sequence (looked up): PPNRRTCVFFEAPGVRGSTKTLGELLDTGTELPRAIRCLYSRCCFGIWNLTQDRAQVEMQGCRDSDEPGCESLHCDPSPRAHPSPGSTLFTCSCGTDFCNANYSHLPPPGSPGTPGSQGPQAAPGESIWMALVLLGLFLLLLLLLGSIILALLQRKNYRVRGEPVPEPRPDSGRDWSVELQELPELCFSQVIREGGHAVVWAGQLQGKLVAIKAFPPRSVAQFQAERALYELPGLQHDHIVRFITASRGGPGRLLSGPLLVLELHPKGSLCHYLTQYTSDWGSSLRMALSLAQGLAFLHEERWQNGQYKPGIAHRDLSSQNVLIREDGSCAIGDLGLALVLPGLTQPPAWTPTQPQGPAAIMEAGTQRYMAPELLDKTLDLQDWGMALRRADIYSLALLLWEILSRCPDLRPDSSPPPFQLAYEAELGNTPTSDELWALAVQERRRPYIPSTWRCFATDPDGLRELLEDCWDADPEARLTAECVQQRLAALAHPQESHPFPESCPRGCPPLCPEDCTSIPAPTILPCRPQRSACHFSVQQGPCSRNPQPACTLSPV

B1: Anti-AMHR2-ED 4D12G1 Chimeric antibody (antibody, human IgG1, kappa, V domains shown)
VH: DVKLVESGGGLVKLGGSLKLSCAASGFTFSRYFMSWVRQTPEKRLELVAAINSDGGRTYYPDTVKGRFTISRDNAKNTLYLQMSSLKSEDTALYYCTRHIYSYYEDYFDYWGQGTTLTVSS
VL: DVVMTQTPLSLPVSLGDQASISCRSSQSLVHSNGNTYLHWYLQKPGQSPKLLIYKVSKRFSGVPDRFSGSGSGTDFTLKISRVEAEDLGVYFCSQSTHVYTFGGGTKLEIKR
notes: also called chimeric 4D12G1 mAb; Chimeric 4D12G1
B2: Anti-AMHR2-ED 4D12G1 Variant 5 antibody (antibody, human IgG1, kappa)
heavy: not shown
light: DVVMTQTPLSSPVTLGQPASISCRSSQSLVHSNGNTYLHWYQQRPGQPPKLLIYKVSKRFSGVPDRFSGSGSGTDFTLKISRVEAEDVGVYFCSQSTHVYTFGQGTKLEIKRTVAAPSVFIFPPSDEQLKSGTASVVCLLNNFYPREAKVQWKVDNALQSGNSQESVTEQDSKDSTYSLSSTLTLSKADYEKHKVYACEVTHQGLSSPVTKSFNRGEC
notes: Humanized variant of 4D12G1; also called humanized 4D12G1 variant 5 mAb; 4D12G1 variant 5 mAb
B3: Anti-AMHR2-ED 4D12G1 Variant 6 antibody (antibody, human IgG1, kappa)
heavy: not shown
light: B2 light
notes: Humanized variant of 4D12G1; also called humanized 4D12G1 variant 6 mAb; Hu4D12G1-6

Each binder was assayed against T1, human AMHR2 on AMHR2-OVCAR8 cells (assay: flow cytometry on AMHR2-OVCAR8 cells).
Protocol: The human AMHR2-OVCAR8 cells expressing high levels of human AMHR2 were treated with Fc-receptor block (BD Biosciences, San Jose, CA) and immunostained with 5 μg of a human isotype control IgG1 mAb as well as with 5 μg of the chimeric 4D12G1 mAb and variants 5 and 6 of the humanized 4D12G1 mAb. Cells were then treated with FITC-labeled goat anti-human IgG (BD Biosciences) and analyzed by flow cytometry using a FACSAria II flow cytometer and BDFacsDiva software (BD Biosciences). […] Insets show darkly staining regions of AMHR2-ED expression which occurs primarily in the parenchyma, with some staining also visible in the stroma.

Binding result, binds:
B1
B2
B3
